Experimental data: IntAct's records for PubMed 18278053

B1: Integrin beta-1 (Gallus gallus (Chicken)), P07228 (parent)
chain: MAETNLTLLTWAGILCCLIWSGSAQQGGSDCIKANAKSCGECIQAGPNCGWCKKTDFLQEGEPTSARCDDLAALKSKGCPEQDIENPRGSKRVLEDREVTNRKIGAAEKLKPEAITQIQPQKLVLQLRVGEPQTFSLKFKRAEDYPIDLYYLMDLSYSMKDDLENVKSLGTALMREMEKITSDFRIGFGSFVEKTVMPYISTTPAKLRNPCTGDQNCTSPFSYKNVLSLTSEGNKFNELVGKQHISGNLDSPEGGFDAIMQVAVCGDQIGWRNVTRLLVFSTDAGFHFAGDGKLGGIVLPNDGKCHLENNMYTMSHYYDYPSIAHLVQKLSENNIQTIFAVTEEFQAVYKELKNLIPKSAVGTLSSNSSNVIQLIIDAYNSLSSEVILENSKLPKEVTISYKSYCKNGVNDTQEDGRKCSNISIGDEVRFEINVTANECPKKGQNETIKIKPLGFTEEVEIHLQFICDCLCQSEGEPNSPACHDGNGTFECGACRCNEGRIGRLCECSTDEVNSEDMDAYCRRENSTEICSNNGECICGQCVCKKRENTNEVYSGKYCECDNFNCDRSNGLICGGNGICKCRVCECFPNFTGSACDCSLDTTPCMAGNGQICNGRGTCECGTCNCTDPKFQGPTCEMCQTCLGVCAEHKDCVQCRAFEKGEKKETCSQECMHFNMTRVESRGKLPQPVHPDPLSHCKEKDVGDCWFYFTYSVNSNGEASVHVVETPECPSGPDIIPIVAGVVAGIVLIGLALLLIWKLLMIIHDRREFAKFEKEKMNAKWDTGENPIYKSAVTTVVNPKYEGK

Variants of: B1
Conditions: with urp2_mouse Fermt3, Q8K1B8
Sequence of urp2_mouse Fermt3, Q8K1B8 (Q8K1B8 whole entry): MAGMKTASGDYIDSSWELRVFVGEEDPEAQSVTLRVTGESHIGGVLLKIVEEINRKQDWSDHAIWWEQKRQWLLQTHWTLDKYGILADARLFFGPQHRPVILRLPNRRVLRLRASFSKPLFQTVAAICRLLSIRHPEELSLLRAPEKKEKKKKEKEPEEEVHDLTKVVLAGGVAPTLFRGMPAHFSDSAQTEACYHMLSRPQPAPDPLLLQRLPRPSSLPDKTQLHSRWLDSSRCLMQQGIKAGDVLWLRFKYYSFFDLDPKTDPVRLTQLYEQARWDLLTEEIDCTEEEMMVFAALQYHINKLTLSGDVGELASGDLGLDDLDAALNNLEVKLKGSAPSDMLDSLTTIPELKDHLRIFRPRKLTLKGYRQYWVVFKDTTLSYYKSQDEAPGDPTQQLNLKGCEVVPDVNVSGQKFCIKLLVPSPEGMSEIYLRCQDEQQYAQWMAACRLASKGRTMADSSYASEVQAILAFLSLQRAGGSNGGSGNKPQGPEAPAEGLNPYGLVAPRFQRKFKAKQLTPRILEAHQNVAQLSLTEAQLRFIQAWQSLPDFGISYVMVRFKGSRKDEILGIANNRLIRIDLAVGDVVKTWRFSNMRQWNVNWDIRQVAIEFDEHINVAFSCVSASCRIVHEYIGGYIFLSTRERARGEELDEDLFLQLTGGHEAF

effect of a mutation on the interaction	Variant
decreasing interaction strength	W780A
disrupting interaction strength	T793A;T794A
disrupting interaction strength	Y800A
decreasing interaction strength	Y788A
